From patent US20170015742A1 (published 2017)

B1: hBDB-4G8.13 (antibody, V domains shown)
VH: EIQLVQSGTEVKKPGESLKISCKASGYTFTNYGMYWVKQMPGKGLEYMGWINTETGKPTYADDFKGRFTFSLDKSFNTAFLQWSSLKASDTAMYFCARTNYYYRSYIFYFDYWGQGTMVTVSS
VL: ETVLTQSPATLSVSPGERATLSCRASESVSTHMHWYQQKPGQAPRLLIYGASNLESGVPARFSGSGSGTDFTLTISSLQSEDFAVYFCQQSWNDPFTFGQGTRLEIK
notes: Humanized IgG made from pHybE vectors in HEK293 cells
B2: hBDB-4G8.14 (antibody, V domains shown)
VH: EIQLVQSGGGVVQPGGSLRLSCAASGYTFTNYGMYWVKQAPGKGLEYMGWINTETGKPTYADDFKGRFTFSLDTSKSTAYLQLNSLRAEDTAVYFCARTNYYYRSYIFYFDYWGQGTLVTVSS
VL: DTVLTQSPSTLSASPGERATISCRASESVSTHMHWYQQKPGQAPKLLIYGASNLESGVPSRFSGSRSGTDFTLTISSLQPEDFAVYFCQQSWNDPFTFGQGTKVEIK
notes: as for B1
B3: hBEW-9A8.20 (antibody, V domains shown)
VH: EIQLVQSGAEVKKPGASVKVSCKASGYTFTNYGMYWVKQAPGQGLEYMGWINTETGKPIYADDFKGRFTFTLDTSTSTAYMELRSLRSDDTAVYYCARVDYDGSFWFAYWGQGTLVTVSS
VL: ETVLTQSPATLSLSPGERATLSCRASESVSTVIHWYQQKPGQQPRLLIHGASNLESGVPARFSGSGSGTDFTLTISSLEPEDFAVYFCQQHWNDPPTFGQGTKLEIK
notes: as for B1
B4: hBDB-4G8.15 (antibody, V domains shown)
VH: EVQLVESGGGLVQPGGSLRLSCAASGYTFTNYGMYWVKQAPGKGLEYMGWINTETGKPTYADDFKGRFTFSLDTSKSTAYLQMNSLRAEDTAVYFCARTNYYYRSYIFYFDYWGQGTLVTVSS
VL: DTQLTQSPSSLSASVGDRVTISCRASESVSTHMHWYQQKPGKAPKLLIYGASNLESGVPSRFSGSGSGTDFTLTISSLQPEDFATYFCQQSWNDPFTFGQGTKVEIK
notes: as for B1
B5: hBDB-4G8.8 (antibody, V domains shown)
VH: EVQLVQSGAEVKKPGASVKVSCKASGYTFTNYGMYWVRQAPGQGLEWMGWINTETGKPTYADDFKGRVTMTTDTSTSTAYMELRSLRSDDTAVYYCARTNYYYRSYIFYFDYWGQGTMVTVSS
VL: ATQLTQSPSLSASVGDRVTITCRASESVSTHMHWYQQKPGKQPKLLIYGASNLESGVPSRFSGSGSGTDFTLTISSLQPEDFATYFCQQSWNDPFTFGQGTKLEIK
notes: as for B1
B6: hBDB-4G8.9 (antibody, V domains shown)
VH: EVQLVQSGAEVKKPGASVKVSCKASGYTFTNYGMYWVRQAPGQGLEWMGWINTETGKPTYADDFKGRVTMTTDTSTSTAYMELRSLRSDDTAVYYCARTNYYYRSYIFYFDYWGQGTMVTVSS
VL: DTVLTQSPATLSLSPGERATLSCRASESVSTHMHWYQQKPGQAPRLLIYGASNLESGVPARFSGSGSGTDFTLTISSLEPEDFAVYFCQQSWNDPFTFGQGTKLEIK
notes: as for B1
B7: hBDB-4G8.11 (antibody, V domains shown)
VH: EIQLVQSGAEVKKPGASVKVSCKASGYTFTNYGMYWVRQAPGQGLEYMGWINTETGKPTYADDFKGRFTFTLDTSTSTAYMELRSLRSDDTAVYFCARTNYYYRSYIFYFDYWGQGTMVTVSS
VL: ATQLTQSPSLSASVGDRVTITCRASESVSTHMHWYQQKPGKQPKLLIYGASNLESGVPSRFSGSGSGTDFTLTISSLQPEDFATYFCQQSWNDPFTFGQGTKLEIK
notes: as for B1
B8: hBDB-4G8.12 (antibody, V domains shown)
VH: EIQLVQSGAEVKKPGASVKVSCKASGYTFTNYGMYWVRQAPGQGLEYMGWINTETGKPTYADDFKGRFTFTLDTSTSTAYMELRSLRSDDTAVYFCARTNYYYRSYIFYFDYWGQGTMVTVSS
VL: DTVLTQSPATLSLSPGERATLSCRASESVSTHMHWYQQKPGQAPRLLIYGASNLESGVPARFSGSGSGTDFTLTISSLEPEDFAVYFCQQSWNDPFTFGQGTKLEIK
notes: as for B1
B9: hBDB-4G8.1 (antibody, V domains shown)
VH: EVQLVQSGSELKKPGASVKVSCKASGYTFTNYGMYWVRQAPGQGLEWMGWINTETGKPTYADDFKGRFVFSLDTSVSTAYLQISSLKAEDTAVYYCARTNYYYRSYIFYFDYWGQGTMVTVSS
VL: AIQLTQSPSSLSASVGDRVTITCRASESVSTHMHWYQQKPGKAPKLLIYGASNLESGVPSRFSGSGSGTDFTLTISSLQPEDFATYYCQQSWNDPFTFGQGTKLEIK
notes: as for B1
B10: hBDB-4G8.2 (antibody, V domains shown)
VH: EVQLVQSGSELKKPGASVKVSCKASGYTFTNYGMYWVRQAPGQGLEWMGWINTETGKPTYADDFKGRFVFSLDTSVSTAYLQISSLKAEDTAVYYCARTNYYYRSYIFYFDYWGQGTMVTVSS
VL: ATQLTQSPSLSASVGDRVTITCRASESVSTHMHWYQQKPGKQPKLLIYGASNLESGVPSRFSGSGSGTDFTLTISSLQPEDFATYFCQQSWNDPFTFGQGTKLEIK
notes: as for B1
B11: hBEW-9A8.11 (antibody, V domains shown)
VH: EVQLVQSGAEVKKPGASVKVSCKASGYTFTNYGMYWVRQAPGQGLEWMGWINTETGKPIYADDFKGRVTMTTDTSTSTAYMELRSLRSDDTAVYYCARVDYDGSFWFAYWGQGTLVTVSS
VL: DIQMTQSPSSLSASVGDRVTITCRASESVSTVIHWYQQKPGKAPKLLIYGASNLESGVPSRFSGSGSGTDFTLTISSLQPEDFATYYCQQHWNDPPTFGQGTKLEIK
notes: as for B1
B12: hBDB-4G8.3 (antibody, V domains shown)
VH: EVQLVQSGSELKKPGASVKVSCKASGYTFTNYGMYWVRQAPGQGLEWMGWINTETGKPTYADDFKGRFVFSLDTSVSTAYLQISSLKAEDTAVYYCARTNYYYRSYIFYFDYWGQGTMVTVSS
VL: DTVLTQSPATLSLSPGERATLSCRASESVSTHMHWYQQKPGQAPRLLIYGASNLESGVPARFSGSGSGTDFTLTISSLEPEDFAVYFCQQSWNDPFTFGQGTKLEIK
notes: as for B1
B13: hBDB-4G8.7 (antibody, V domains shown)
VH: EVQLVQSGAEVKKPGASVKVSCKASGYTFTNYGMYWVRQAPGQGLEWMGWINTETGKPTYADDFKGRVTMTTDTSTSTAYMELRSLRSDDTAVYYCARTNYYYRSYIFYFDYWGQGTMVTVSS
VL: AIQLTQSPSSLSASVGDRVTITCRASESVSTHMHWYQQKPGKAPKLLIYGASNLESGVPSRFSGSGSGTDFTLTISSLQPEDFATYYCQQSWNDPFTFGQGTKLEIK
notes: as for B1
B14: hBDB-4G8.10 (antibody, V domains shown)
VH: EIQLVQSGAEVKKPGASVKVSCKASGYTFTNYGMYWVRQAPGQGLEYMGWINTETGKPTYADDFKGRFTFTLDTSTSTAYMELRSLRSDDTAVYFCARTNYYYRSYIFYFDYWGQGTMVTVSS
VL: AIQLTQSPSSLSASVGDRVTITCRASESVSTHMHWYQQKPGKAPKLLIYGASNLESGVPSRFSGSGSGTDFTLTISSLQPEDFATYYCQQSWNDPFTFGQGTKLEIK
notes: as for B1
B15: hBDB-4G8.5 (antibody, V domains shown)
VH: EIQLVQSGSELKKPGASVKVSCKASGYTFTNYGMYWVRQAPGQGLEYMGWINTETGKPTYADDFKGRFVFSLDTSVSTAYLQISSLKAEDTAVYFCARTNYYYRSYIFYFDYWGQGTMVTVSS
VL: ATQLTQSPSLSASVGDRVTITCRASESVSTHMHWYQQKPGKQPKLLIYGASNLESGVPSRFSGSGSGTDFTLTISSLQPEDFATYFCQQSWNDPFTFGQGTKLEIK
notes: as for B1
B16: hBEW-9A8.12 (antibody, V domains shown)
VH: EVQLVQSGAEVKKPGASVKVSCKASGYTFTNYGMYWVRQAPGQGLEWMGWINTETGKPIYADDFKGRVTMTTDTSTSTAYMELRSLRSDDTAVYYCARVDYDGSFWFAYWGQGTLVTVSS
VL: DTQLTQSPSSLSASVGDRVTITCRASESVSTVIHWYQQKPGKQPKLLIHGASNLESGVPSRFSGSGSGTDFTLTISSLQPEDFATYFCQQHWNDPPTFGQGTKLEIK
notes: as for B1
B17: hBDB-4G8.4 (antibody, V domains shown)
VH: EIQLVQSGSELKKPGASVKVSCKASGYTFTNYGMYWVRQAPGQGLEYMGWINTETGKPTYADDFKGRFVFSLDTSVSTAYLQISSLKAEDTAVYFCARTNYYYRSYIFYFDYWGQGTMVTVSS
VL: AIQLTQSPSSLSASVGDRVTITCRASESVSTHMHWYQQKPGKAPKLLIYGASNLESGVPSRFSGSGSGTDFTLTISSLQPEDFATYYCQQSWNDPFTFGQGTKLEIK
notes: as for B1
B18: hBDB-4G8.6 (antibody, V domains shown)
VH: EIQLVQSGSELKKPGASVKVSCKASGYTFTNYGMYWVRQAPGQGLEYMGWINTETGKPTYADDFKGRFVFSLDTSVSTAYLQISSLKAEDTAVYFCARTNYYYRSYIFYFDYWGQGTMVTVSS
VL: DTVLTQSPATLSLSPGERATLSCRASESVSTHMHWYQQKPGQAPRLLIYGASNLESGVPARFSGSGSGTDFTLTISSLEPEDFAVYFCQQSWNDPFTFGQGTKLEIK
notes: as for B1
B19: hBEW-9A8.9 (antibody, V domains shown)
VH: EVQLVQSGAEVKKPGASVKVSCKASGYTFTNYGMYWVRQAPGQGLEWMGWINTETGKPIYADDFKGRVTMTTDTSTSTAYMELRSLRSDDTAVYYCARVDYDGSFWFAYWGQGTLVTVSS
VL: EIVLTQSPDFQSVTPKEKVTITCRASESVSTVIHWYQQKPDQSPKLLIKGASNLESGVPSRFSGSGSGTDFTLTINSLEAEDAATYYCQQHWNDPPTFGQGTKLEIK
notes: as for B1

molecular target: T1, human VEGF-A (human, UniProt P15692-4 27-191, limits assumed); assay: SPR (Biacore), antibody captured by anti-human Fc, VEGF-A injected
T1 construct: also called huVEGF-A
Description: For example, approximately 9000 RU of goat anti-human Fc specific polyclonal antibody (Thermo Fisher Scientific Inc., Rockford, Ill.) diluted in 10 mM sodium acetate (pH 4.5) is directly immobilized across a CM5 research grade biosensor chip using a standard amine coupling kit according to manufacturer's instructions and procedures at 25 μg/ml. Unreacted moieties on the biosensor surface were blocked with ethanolamine. For kinetic analysis, rate equations derived from the 1:1 Langmuir binding model were fitted simultaneously to multiple antigen injections (using global fit analysis) with the use of Scrubber 2 (BioLogic Software), Biacore Biaevaluation 4.0.1 software or Biacore T100 Evaluation software. Purified antibodies or DVD-Ig molecules were diluted in running buffer for capture across goat anti-human Fc reaction surfaces. Antibodies or DVD-Ig molecules to be captured as a ligand (1 μg/ml) were injected over reaction matrices at a flow rate of 10 μl/minute. During the assay, all measurements were referenced against the capture surface alone (i.e., with no captured antibody or DVD-Ig molecule). […] The equilibrium dissociation constant KD (M) of the reaction between antibodies and the target antigen was then calculated from the kinetic rate constants by the following formula: KD=Koff/Kₒₙ. Binding was recorded as a function of time and kinetic rate constants were calculated.

T1 sequence (P15692 other isoform, or with tags, fused parts or gaps limits assumed): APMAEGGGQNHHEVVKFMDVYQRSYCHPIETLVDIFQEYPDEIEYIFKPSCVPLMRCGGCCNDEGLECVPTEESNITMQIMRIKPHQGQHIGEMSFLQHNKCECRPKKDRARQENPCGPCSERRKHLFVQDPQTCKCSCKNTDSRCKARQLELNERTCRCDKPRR

Kd [pM]	kon [M⁻¹ s⁻¹]	Binder
7.6	2.2e+07	B1
3.7	1.5e+07	B2
1.6	7.6e+06	B3
4.4	2e+07	B4
47	1.8e+07	B5
62	1.4e+07	B6
1.3	2.6e+07	B7
1.2	2.6e+07	B8
5.8	1.8e+07	B9
3.6	1.7e+07	B10
74	1.5e+07	B11
4.8	1e+07	B12
34	3.7e+07	B13
8.1	2.7e+07	B14
1.6	2.5e+07	B15
15	9.6e+06	B16
5.5	2.7e+07	B17
1.4	2.6e+07	B18
820	1e+07	B19
